Data published in EP4703474A1, “ANTI-LRRC15 ANTIBODY” (priority 2023, dated 2024).

B1: H02L01-PBD (conjugate)
heavy: EVQLVESGGGLVQPGGSLRLSCAASGFTFRDYYMAWVRQAPGKGLEWVSSIGFDESRTYYADSVKGRFTISRDDSKNTLYLQMNSLRAEDTAVYYCARHGVSYYSGDNWFAYWGQGTLVTVSSASTKGPSVFPLAPSSKSTSGGTAALGCLVKDYFPEPVTVSWNSGALTSGVHTFPAVLQSSGLYSLSSVVTVPSSSLGTQTYICNVNHKPSNTKVDKKVEPKSCDKTHTCPPCPAPEAAGGPSVFLFPPKPKDTLMISRTPEVTCVVVDVSHEDPEVKFNWYVDGVEVHNAKTKPREEQYNSTYRVVSVLTVLHQDWLNGKEYKCKVSNKALAAPIEKTISKAKGQPREPQVYTLPPSREEMTKNQVSLTCLVKGFYPSDIAVEWESNGQPENNYKTTPPVLDSDGSFFLYSKLTVDKSRWQQGNVFSCSVMHEALHNHYTQKSLSLSPGK
light: DIQMTQSPSSLSASVGDRVTITCKSSQGLLYSGDQKNYLAWYQQKPGKAPKLLIYWASTRQSGVPSRFSGSGSGTDFTLTISSLQPEDFATYYCQQYYDPPYTFGQGTKVEIKRTVAAPSVFIFPPSDEQLKSGTASVVCLLNNFYPREAKVQWKVDNALQSGNSQESVTEQDSKDSTYSLSSTLTLSKADYEKHKVYACEVTHQGLSSPVTKSFNRGEC
B2: H02L01-V2-PBD (conjugate)
heavy: EVQLVESGGGLVQPGGSLRLSCAASGFTFRDYYMAWVRQAPGKGLEWVSSIGFDESRTYYADSVKGRFTISRDDSKNTLYLQMNSLRAEDTAVYYCARHGVSRYSGDNWFAYWGQGTLVTVSSASTKGPSVFPLAPSSKSTSGGTAALGCLVKDYFPEPVTVSWNSGALTSGVHTFPAVLQSSGLYSLSSVVTVPSSSLGTQTYICNVNHKPSNTKVDKKVEPKSCDKTHTCPPCPAPEAAGGPSVFLFPPKPKDTLMISRTPEVTCVVVDVSHEDPEVKFNWYVDGVEVHNAKTKPREEQYNSTYRVVSVLTVLHQDWLNGKEYKCKVSNKALAAPIEKTISKAKGQPREPQVYTLPPSREEMTKNQVSLTCLVKGFYPSDIAVEWESNGQPENNYKTTPPVLDSDGSFFLYSKLTVDKSRWQQGNVFSCSVMHEALHNHYTQKSLSLSPGK
light: DIQMTQSPSSLSASVGDRVTITCKSSQGLLYSGDQKNYLAWYQQKPGKAPKLLIYWASTRQSGVPSRFSGSGSGTDFTLTISSLQPEDFATYYCQQYYDPPYTFGQGTKVEIKRTVAAPSVFIFPPSDEQLKSGTASVVCLLNNFYPREAKVQWKVDNALQSGNSQESVTEQDSKDSTYSLSSTLTLSKADYEKHKVYACEVTHQGLSSPVTKSFNRGEC
B3: H02L01-V1-PBD (conjugate)
heavy: EVQLVESGGGLVQPGGSLRLSCAASGFTFRDYYMAWVRQAPGKGLEWVSSIGFDESRTYYADSVKGRFTISRDDSKNTLYLQMNSLRAEDTAVYYCARHGVSKYSGDNWFAYWGQGTLVTVSSASTKGPSVFPLAPSSKSTSGGTAALGCLVKDYFPEPVTVSWNSGALTSGVHTFPAVLQSSGLYSLSSVVTVPSSSLGTQTYICNVNHKPSNTKVDKKVEPKSCDKTHTCPPCPAPEAAGGPSVFLFPPKPKDTLMISRTPEVTCVVVDVSHEDPEVKFNWYVDGVEVHNAKTKPREEQYNSTYRVVSVLTVLHQDWLNGKEYKCKVSNKALAAPIEKTISKAKGQPREPQVYTLPPSREEMTKNQVSLTCLVKGFYPSDIAVEWESNGQPENNYKTTPPVLDSDGSFFLYSKLTVDKSRWQQGNVFSCSVMHEALHNHYTQKSLSLSPGK
light: DIQMTQSPSSLSASVGDRVTITCKSSQGLLYSGDQKNYLAWYQQKPGKAPKLLIYWASTRQSGVPSRFSGSGSGTDFTLTISSLQPEDFATYYCQQYYDPPYTFGQGTKVEIKRTVAAPSVFIFPPSDEQLKSGTASVVCLLNNFYPREAKVQWKVDNALQSGNSQESVTEQDSKDSTYSLSSTLTLSKADYEKHKVYACEVTHQGLSSPVTKSFNRGEC

How the values were obtained:
[1] = system: LRRC15-negative human lung carcinoma cell line HCC827; test: In vivo antitumor effect, HCC827 subcutaneous transplant model; settings: 0.4 mg/kg, tail vein, on Day 10, female SCID mice, huM25-MMAE at 0.4 mg/kg or 3.6 mg/kg
Description: The antitumor effects of the antibody-drug conjugates were evaluated by using animal models in which cells of the human tumor cell line had been transplanted into immunodeficient mice. 4 to 6 Week-old SCID mice (CB17/Icr-Prkdc[scid]/CrlCrlj, Jackson Laboratory Japan, Inc.) were habituated for 3 days or more under SPF conditions before experimental use. The mice were fed with sterilized solid feed (FR-2, Funabashi Farms Co., Ltd.) and given sterilized tap water (prepared by adding a solution of 5 to 15 ppm sodium hypochlorite). The major and minor diameters of the transplanted tumors were measured twice a week with an electronic digital caliper ([…] Corporation), and the estimated tumor volume was calculated using the following formula. Estimated tumor volume (mm^3) = 1/2 × major diameter (mm) × [minor diameter (mm)]^2 All antibody-drug conjugates were diluted with ABS and administered into the tail vein at doses shown in each Example. In addition, ABS (vehicle) or control hIgG-PBD prepared in Reference Example 4 was administered as the control group, in a similar manner. 5 to 6 Mice were used per group in the experiment. […]

[2] = system: LRRC15-positive human osteosarcoma cell line HuO9; test: In vivo antitumor effect, HuO9 subcutaneous transplant model; settings: tail vein, on Day 10, female SCID mice
Description: The antitumor effects of the antibody-drug conjugates were evaluated by using animal models in which cells of the human tumor cell line had been transplanted into immunodeficient mice. 4 to 6 Week-old SCID mice (CB17/Icr-Prkdc[scid]/CrlCrlj, Jackson Laboratory Japan, Inc.) were habituated for 3 days or more under SPF conditions before experimental use. The mice were fed with sterilized solid feed (FR-2, Funabashi Farms Co., Ltd.) and given sterilized tap water (prepared by adding a solution of 5 to 15 ppm sodium hypochlorite). The major and minor diameters of the transplanted tumors were measured twice a week with an electronic digital caliper ([…] Corporation), and the estimated tumor volume was calculated using the following formula. Estimated tumor volume (mm^3) = 1/2 × major diameter (mm) × [minor diameter (mm)]^2 All antibody-drug conjugates were diluted with ABS and administered into the tail vein at doses shown in each Example. In addition, ABS (vehicle) or control hIgG-PBD prepared in Reference Example 4 was administered as the control group, in a similar manner. 5 to 6 Mice were used per group in the experiment. Based on publicly known information, LRRC15-positive human osteosarcoma cell line HuO9 (JCRB) was suspended in Matrigel (Corning Incorporated), 5.0 × 10^6 cells were subcutaneously transplanted into the right flank of female SCID mice (Day 0), and random grouping was performed on Day 10. On the day of grouping, the vehicle, the antibody-drug conjugates […]-PBD, […]-V1-PBD, and […]-V2-PBD prepared in Example 5, or the control hIgG-PBD prepared in Reference Example 4 was administered at a dose of 0.4 mg/kg, and the huM25-MMAE prepared in Reference Example 5 was administered at a dose of 0.4 mg/kg or 3.6 mg/kg into the tail vein. The abscissa indicates the number of days, and the ordinate indicates estimated tumor volume, and the error bars indicate SEM values. […] The antitumor effects of the antibody-drug conjugates were evaluated by using animal models in which cells of a human tumor cell line had been transplanted into immunodeficient mice, or cells of a mouse tumor cell line had been transplanted into immunocompetent mice. 4 to 6 Week-old SCID mice (CB17/Icr-Prkdc[scid]/CrlCrlj, Jackson Laboratory Japan, Inc.), NSG mice (NOD.Cg-Prkdcscid Il2rgtm1Wjl/SzJ, Jackson Laboratory Japan, Inc.), or B6J mice (C57BL/6J, Jackson Laboratory Japan, Inc.) were habituated for 3 days or more under SPF conditions before experimental use. The mice were fed with sterilized solid feed and given sterilized tap water. The major and minor diameters of the transplanted tumors were measured twice a week with an electronic digital caliper (Mitutoyo Corporation), and the estimated tumor volume was calculated using the following formula. Estimated tumor volume (mm^3) = 1/2 × major diameter (mm) × [minor diameter (mm)]^2 All antibody-drug conjugates were diluted with ABS and administered into the tail vein at doses shown in each Example. In addition, ABS (vehicle) or control hIgG-PBD prepared in Reference Example 4 was administered as the control group, in a similar manner. 5 to 6 Mice were used per group in the experiment. Based on publicly known information, LRRC15-positive human osteosarcoma cell line HuO9 (JCRB) was suspended in Matrigel (Corning Incorporated), 5.0 × 10^6 cells were subcutaneously transplanted into the right flank of female SCID mice (Day 0), and random grouping was performed on Day 10. On the day of grouping, a vehicle, the antibody-drug conjugate […]-V1-PBD or […]-V2-PBD prepared in Example 5, or huM25-PBD prepared in Reference Example 6-2 was administered into the tail vein at a dose of 0.3 mg/kg. The abscissa indicates the number of days, and the ordinate indicates estimated tumor volume, and the error bars indicate SEM values.

[3] = 0.4 mg/kg, huM25-MMAE at 0.4 mg/kg or 3.6 mg/kg
[4] = 0.3 mg/kg, huM25-PBD at the same dose

Row | Molecule | antitumor effect (estimated tumor volume) [1] | antitumor effect (estimated tumor volume) [2, 3] | antitumor effect (estimated tumor volume) [2, 4] | tumor regression ([2]; 0.4 mg/kg)
1 | B1 | antitumor activity higher than that of the vehicle, the control hIgG-PBD, and huM25-MMAE | antitumor activity higher than that of the vehicle, the control hIgG-PBD, and huM25-MMAE | – | –
2 | B2 | – | antitumor activity higher than that of the vehicle, the control hIgG-PBD, and huM25-MMAE | antitumor activity higher than that of the vehicle and huM25-PBD | lead to tumor regression
3 | B3 | antitumor activity higher than that of the vehicle, the control hIgG-PBD, and huM25-MMAE | antitumor activity higher than that of the vehicle, the control hIgG-PBD, and huM25-MMAE | antitumor activity higher than that of the vehicle and huM25-PBD | lead to tumor regression
